Residue numbers refer to the chain shown, from its start. Where “and” joins values, the source holds several entries; their conditions need not be identical. Equal values may be shown once.
Assays:
[1] = target: T1, recombinant Plasmodium falciparum circumsporozoite protein (CSP) (Plasmodium falciparum, UniProt P19597 21-375); assay: cell-based or functional assay
[2] = target: T1, recombinant Plasmodium falciparum …; assay: SPR, recombinant CSP; geometric mean, n=3
human FcRn = target: T2, human FcRn (human, UniProt P55899 24-297; P61769 21-119); assay: SPR, human FcRn, pH 6.0
T2 construct: also called neonatal Fc receptor

[3] = target: T1, recombinant Plasmodium falciparum …; assay: SPR, recombinant CSP; n=1
[4] = target: T1, recombinant Plasmodium falciparum …; assay: cell-based or functional assay; remark: listed apart in the source
[5] = target: T1, recombinant Plasmodium falciparum …; assay: cell-based or functional assay; remark: listed apart in the source
human FcγRI = target: T3, human FcγRI (human, UniProt P12314 16-288); assay: SPR, human FcγR
T3 construct: also called hFcγRI; CD64
Source text: (§1) A human IgG1 antibody in both WT and Fc silenced (LAGA) formats were included as negative control.

human FcγRIIb = target: T4, human FcγRIIb (human, UniProt P31994 43-217); assay: SPR, human FcγR
T4 construct: also called hFcγRIIb
T4 sequence (looked up): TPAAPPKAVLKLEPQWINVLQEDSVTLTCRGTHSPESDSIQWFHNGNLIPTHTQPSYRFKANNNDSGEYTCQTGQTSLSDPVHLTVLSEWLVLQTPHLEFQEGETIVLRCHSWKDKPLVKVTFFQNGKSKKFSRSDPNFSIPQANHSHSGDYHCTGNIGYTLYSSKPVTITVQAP
Source text: as §1

human FcγRIIIa (F158) = target: T5, human FcγRIIIa (F158) (human, UniProt P08637 17-208); assay: SPR, human FcγR
T5 construct: also called hFcγRIIIaF
Source text: as §1

human FcγRIIa (H131) = target: T6, human FcγRIIa (H131) (human, UniProt P12318 36-218); assay: SPR, human FcγR
T6 construct: also called hFcγRIIaH
T6 sequence (looked up): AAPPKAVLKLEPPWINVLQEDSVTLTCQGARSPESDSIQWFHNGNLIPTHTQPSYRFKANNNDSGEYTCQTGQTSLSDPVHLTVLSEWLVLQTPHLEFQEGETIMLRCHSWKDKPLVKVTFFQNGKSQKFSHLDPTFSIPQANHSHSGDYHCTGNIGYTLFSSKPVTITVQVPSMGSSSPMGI
Source text: as §1

human FcγRIIIa (V158) = target: T7, human FcγRIIIa (V158) (human, UniProt P08637 17-208); assay: SPR, human FcγR
T7 construct: also called hFcγRIIIaV
Source text: as §1

human FcγRIIa (R131) = target: T8, human FcγRIIa (R131) (human, UniProt P12318 36-218); assay: SPR, human FcγR
T8 construct: also called hFcγRIIaR
T8 sequence (looked up): T6 sequence (looked up) with H132R
Source text: as §1

T1 sequence (P19597 21-375 limits assumed): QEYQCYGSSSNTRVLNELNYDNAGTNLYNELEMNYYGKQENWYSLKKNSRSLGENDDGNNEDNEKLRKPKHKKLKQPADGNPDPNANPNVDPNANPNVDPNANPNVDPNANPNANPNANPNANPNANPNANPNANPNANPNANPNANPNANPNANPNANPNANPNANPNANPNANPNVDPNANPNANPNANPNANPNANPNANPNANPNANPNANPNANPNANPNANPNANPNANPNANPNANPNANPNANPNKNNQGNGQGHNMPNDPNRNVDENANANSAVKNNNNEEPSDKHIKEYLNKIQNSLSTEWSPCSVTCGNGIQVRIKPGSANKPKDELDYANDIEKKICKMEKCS
T7 sequence (P08637 17-208 F176V limits assumed): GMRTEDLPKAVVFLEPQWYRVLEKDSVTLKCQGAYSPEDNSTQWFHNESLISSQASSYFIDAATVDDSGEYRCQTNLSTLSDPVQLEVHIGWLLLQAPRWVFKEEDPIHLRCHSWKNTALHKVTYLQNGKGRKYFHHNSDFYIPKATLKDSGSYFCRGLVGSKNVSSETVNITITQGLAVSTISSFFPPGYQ
T3 sequence (P12314 16-288 limits assumed): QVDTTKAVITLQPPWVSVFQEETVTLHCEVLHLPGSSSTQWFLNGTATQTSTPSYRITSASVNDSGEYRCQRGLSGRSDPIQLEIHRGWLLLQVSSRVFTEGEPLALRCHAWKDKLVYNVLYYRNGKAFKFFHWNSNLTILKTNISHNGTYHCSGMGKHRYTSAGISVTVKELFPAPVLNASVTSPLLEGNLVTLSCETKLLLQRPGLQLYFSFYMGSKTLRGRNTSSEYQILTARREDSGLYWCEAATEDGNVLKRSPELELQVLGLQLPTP
T5 sequence (P08637 17-208 limits assumed): as the sequence (P08637 17-208 F176V limits assumed) above, with V160F counted along it
T2 sequence (P55899 24-297 limits assumed, form in doubt, chain 1 of 2): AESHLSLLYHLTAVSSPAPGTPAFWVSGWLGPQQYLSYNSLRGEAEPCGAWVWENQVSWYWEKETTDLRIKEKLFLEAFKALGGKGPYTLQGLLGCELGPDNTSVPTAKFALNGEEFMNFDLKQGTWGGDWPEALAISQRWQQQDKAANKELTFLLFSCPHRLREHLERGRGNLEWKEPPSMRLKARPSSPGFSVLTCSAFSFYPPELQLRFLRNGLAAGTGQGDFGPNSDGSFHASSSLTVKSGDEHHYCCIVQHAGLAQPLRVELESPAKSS
T2 sequence (P61769 21-119 limits assumed, form in doubt, chain 2 of 2): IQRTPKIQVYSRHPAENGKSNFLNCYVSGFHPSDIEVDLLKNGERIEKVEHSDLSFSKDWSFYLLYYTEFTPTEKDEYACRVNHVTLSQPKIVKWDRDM

B1: AB-000356 ALE LS (antibody, human IgG1, kappa)
heavy: QVQLVESGGGVVQPGRSLRLSCAASGFTFRNFGMHWVRQTPGKGLEWVAVIWHDGSNKFYADSVEGRFTISRDNSKNMIYLQMNSLRVEDTAIYYCARDSLFYDHDNSGYYGYWGQGTLVTVSSASTKGPSVFPLAPSSKSTSGGTAALGCLVKDYFPEPVTVSWNSGALTSGVHTFPAVLQSSGLYSLSSVVTVPSSSLGTQTYICNVNHKPSNTKVDKKVEPKSCDKTHTCPPCPAPELLAGPSVFLFPPKPKDTLMISRTPEVTCVVVDVSHEDPEVKFNWYVDGVEVHNAKTKPREEQYNSTYRVVSVLTVLHQDWLNGKEYKCKVSNKALPLPEEKTISKAKGQPREPQVYTLPPSRDELTKNQVSLTCLVKGFYPSDIAVEWESNGQPENNYKTTPPVLDSDGSFFLYSKLTVDKSRWQQGNVFSCSVLHEALHSHYTQKSLSLSPGK
light: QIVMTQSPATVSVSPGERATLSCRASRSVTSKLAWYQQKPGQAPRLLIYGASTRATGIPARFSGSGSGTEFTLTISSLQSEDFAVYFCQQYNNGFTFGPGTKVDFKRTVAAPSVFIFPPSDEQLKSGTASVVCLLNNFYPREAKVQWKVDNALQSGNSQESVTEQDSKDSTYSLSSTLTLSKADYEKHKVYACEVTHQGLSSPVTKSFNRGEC
Question: Which “GeoMean EC50 (M), ADCP” value [1] does the source give for B1 here?
Answer: The value was 5.03e-13 M.

Question: And the “Mean EC50 (pM), ADCP” value [1]?
Answer: The value was 0.5 pM.

Question: What about the “Mean pEC50, ADCP” value [1] of the same binder?
Answer: Its value is 12.3.

Question: What about the Kd [2] of the same binder?
Answer: The Kd was 1.1 nM.

Question: And the Kd (human FcRn)?
Answer: The Kd was 52 nM.

Question: And the Kd [3]?
Answer: Its Kd is 1.58 nM.

Question: What about the “GeoMean EC50 (M), ADCP repeat, n=4” value [4] of the same binder?
Answer: Its value is 6.45e-13 M.

Question: And the “Mean EC50 (pM), ADCP repeat, n=4” value [4]?
Answer: Its value is 0.6 pM.

Question: And the “Mean pEC50, ADCP repeat, n=4” value [4]?
Answer: The value was 12.2.

Question: What about the “Geo Mean EC50 (ug/ml), ADNKA, Donor 1” value [5] of the same binder?
Answer: The value was 0.0052 µg/mL.

Question: What about the “Geo Mean EC50 (ug/ml), ADNKA, Donor 2” value [5] of the same binder?
Answer: Its value is 0.0035 µg/mL.

Question: And the “Geo Mean EC50 (ug/ml), ADNKA, Donor 3” value [5]?
Answer: Its value is 0.189 µg/mL.

Question: What about the “Geo Mean EC50 (ug/ml), ADNKA, Donor 4” value [5] of the same binder?
Answer: The value was 0.0104 µg/mL.

Question: And the Kd (human FcγRI)?
Answer: The Kd was 56 nM and 157 nM.

Question: And the Kd (human FcγRIIb)?
Answer: Its Kd is 3890 nM.

Question: What about the Kd (human FcγRIIIa (F158)) of the same binder?
Answer: Its Kd is 89 nM and 246 nM.

Question: What about the Kd (human FcγRIIa (H131)) of the same binder?
Answer: Its Kd is 218 nM and 268 nM.

Question: What about the Kd (human FcγRIIIa (V158)) of the same binder?
Answer: The Kd was 73 nM and 144 nM.

Question: What about the Kd (human FcγRIIa (R131)) of the same binder?
Answer: Its Kd is 675 nM and 766 nM.
